Test results taken from publication PMC7497679, “Structure-based design, synthesis, and evaluation of the biological activity of novel phosphoroorganic small molecule IAP antagonists” (Investigational New Drugs, 2020).
Square brackets hold non-standard residues; d marks the D form. 5(6)‑Fam = 5(6)-carboxyfluorescein; Dpm = not defined here

Target: T1, X-linked inhibitor of apoptosis protein (XIAP) BIR3 domain (human)
T1 construct: Neither the catalogue number, the construct limits nor the tags of the Sino Biological protein are stated; also called XIAP BIR3 protein; source: bought: Sino Biological, Beijing, China
Assay: fluorescence polarisation; direct binding: two-fold serial dilutions of XIAP BIR3 domain (2.5 µM to 0.0763 nM) incubated 30 min with probe 4 (2 nM); r.t.; phosphate buffer pH 7.5 with γ-globulin 100 µg/mL and NaN3 0.02%; one site - total binding model
Settings: both partners purified

Kd: 49.9 ± 5.37 nM
B1: fluorescent probe H2N-Ala-Val-Pro-Dpm-Ala-Lys(5(6)-Fam)-Lys-NH2 (4) (peptide)
chain: H-AVP[Dpm]AK(5(6)‑Fam)K-NH2
modifications: reading uncertain; also: printed as H2N-Ala-Val-Pro-Dpm-Ala-Lys(5(6)-Fam)-Lys-NH2
